Experimental data taken from patent US20180237475A1 (BIONIZ, published 2018).

Molecular target: T1, human γc-subunit (common γ subunit, CD132) (human, UniProt P31785 23-369)
T1 sequence (looked up): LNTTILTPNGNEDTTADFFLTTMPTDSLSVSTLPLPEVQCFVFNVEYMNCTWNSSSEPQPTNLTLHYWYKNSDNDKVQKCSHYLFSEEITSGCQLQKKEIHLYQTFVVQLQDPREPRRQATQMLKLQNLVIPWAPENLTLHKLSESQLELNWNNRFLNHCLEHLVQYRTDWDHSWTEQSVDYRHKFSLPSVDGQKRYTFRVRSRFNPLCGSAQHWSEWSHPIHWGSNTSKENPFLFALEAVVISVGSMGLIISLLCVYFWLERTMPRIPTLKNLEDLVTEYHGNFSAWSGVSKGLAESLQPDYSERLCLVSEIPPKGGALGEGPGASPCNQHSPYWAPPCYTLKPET
Test: cell-based or functional assay

In the case of IKEFLQRFIHIVQSIINTS [BNZ132-1], the “IC50 on IL-2/IL-15-induced (0.1 nM each) proliferation of ex vivo human T-lymphocytes” value is reported as 150 nM.
